B1: sp¦P05164¦PERM_HUMAN (protein, UniProt P05164 165-745, looked up)
Myeloperoxidase: VTCPEQDKYRTITGMCNNRRSPTLGASNRAFVRWLPAEYEDGFSLPYGWTPGVKRNGFPVALARAVSNEIVRFPTDQLTPDQERSLMFMQWGQLLDHDLDFTPEPAARASFVTGVNCETSCVQQPPCFPLKIPPNDPRIKNQADCIPFFRSCPACPGSNITIRNQINALTSFVDASMVYGSEEPLARNLRNMSNQLGLLAVNQRFQDNGRALLPFDNLHDDPCLLTNRSARIPCFLAGDTRSSEMPELTSMHTLLLREHNRLATELKSLNPRWDGERLYQEARKIVGAMVQIITYRDYLPLVLGPTAMRKYLPTYRSYNDSVDPRIANVFTNAFRYGHTLIQPFMFRLDNRYQPMEPNPRVPLSRVFFASWRVVLEGGIDPILRGLMATPAKLNRQNQIAVDEIRERLFEQVMRIGLDLPALNMQRSRDHGLPGYNAWRRFCGLPQPETVGQLGTVLRNLKLARKLMEQYGTPNNIDIWMGGVSEPLKRKGRVGPLLACIIGTQFRKLRDGDRFWWENEGVFSMQQRQALAQISLPRIICDNTGITTVSKNNIFMSNSYPRDFVNCSTLPALNLASWREAS
B2: sp¦P10809¦CH60_HUMAN (protein, UniProt P10809 27-573, looked up)
60 kDa heat shock protein, …: AKDVKFGADARALMLQGVDLLADAVAVTMGPKGRTVIIEQSWGSPKVTKDGVTVAKSIDLKDKYKNIGAKLVQDVANNTNEEAGDGTTTATVLARSIAKEGFEKISKGANPVEIRRGVMLAVDAVIAELKKQSKPVTTPEEIAQVATISANGDKEIGNIISDAMKKVGRKGVITVKDGKTLNDELEIIEGMKFDRGYISPYFINTSKGQKCEFQDAYVLLSEKKISSIQSIVPALEIANAHRKPLVIIAEDVDGEALSTLVLNRLKVGLQVVAVKAPGFGDNRKNQLKDMAIATGGAVFGEEGLTLNLEDVQPHDLGKVGEVIVTKDDAMLLKGKGDKAQIEKRIQEIIEQLDVTTSEYEKEKLNERLAKLSDGVAVLKVGGTSDVEVNEKKDRVTDALNATRAAVEEGIVLGGGCALLRCIPALDSLTPANEDQKIGIEIIKRTLKIPAMTIAKNAGVEGSLIVEKIMQSSSEVGYDAMAGDFVNMVEKGIIDPTKVVRTALLDAAGVASLLTTAEVVVTEIPKEEKDPGMGAMGGMGGGMGGGMF
B3: sp¦P08240¦SRPRA_HUMAN (protein, UniProt P08240 1-638, looked up)
Signal recognition particle …: MLDFFTIFSKGGLVLWCFQGVSDSCTGPVNALIRSVLLQERGGNNSFTHEALTLKYKLDNQFELVFVVGFQKILTLTYVDKLIDDVHRLFRDKYRTEIQQQSALSLLNGTFDFQNDFLRLLREAEESSKIRAPTTMKKFEDSEKAKKPVRSMIETRGEKPKEKAKNSKKKGAKKEGSDGPLATSKPVPAEKSGLPVGPENGVELSKEELIRRKREEFIQKHGRGMEKSNKSTKSDAPKEKGKKAPRVWELGGCANKEVLDYSTPTTNGTPEAALSEDINLIRGTGSGGQLQDLDCSSSDDEGAAQNSTKPSATKGTLGGMFGMLKGLVGSKSLSREDMESVLDKMRDHLIAKNVAADIAVQLCESVANKLEGKVMGTFSTVTSTVKQALQESLVQILQPQRRVDMLRDIMDAQRRQRPYVVTFCGVNGVGKSTNLAKISFWLLENGFSVLIAACDTFRAGAVEQLRTHTRRLSALHPPEKHGGRTMVQLFEKGYGKDAAGIAMEAIAFARNQGFDVVLVDTAGRMQDNAPLMTALAKLITVNTPDLVLFVGEALVGNEAVDQLVKFNRALADHSMAQTPRLIDGIVLTKFDTIDDKVGAAISMTYITSKPIVFVGTGQTYCDLRSLNAKAVVAALMKA
B4: sp¦Q14C86¦GAPD1_HUMAN (protein, UniProt Q14C86 1-1478, looked up)
GTPase-activating protein and …: MVKLDIHTLAHHLKQERLYVNSEKQLIQRLNADVLKTAEKLYRTAWIAKQQRINLDRLIITSAEASPAECCQHAKILEDTQFVDGYKQLGFQETAYGEFLSRLRENPRLIASSLVAGEKLNQENTQSVIYTVFTSLYGNCIMQEDESYLLQVLRYLIEFELKESDNPRRLLRRGTCAFSILFKLFSEGLFSAKLFLTATLHEPIMQLLVEDEDHLETDPNKLIERFSPSQQEKLFGEKGSDRFRQKVQEMVESNEAKLVALVNKFIGYLKQNTYCFPHSLRWIVSQMYKTLSCVDRLEVGEVRAMCTDLLLACFICPAVVNPEQYGIISDAPINEVARFNLMQVGRLLQQLAMTGSEEGDPRTKSSLGKFDKSCVAAFLDVVIGGRAVETPPLSSVNLLEGLSRTVVYITYSQLITLVNFMKSVMSGDQLREDRMALDNLLANLPPAKPGKSSSLEMTPYNTPQLSPATTPANKKNRLPIATRSRSRTNMLMDLHMDHEGSSQETIQEVQPEEVLVISLGTGPQLTPGMMSENEVLNMQLSDGGQGDVPVDENKLHGKPDKTLRFSLCSDNLEGISEGPSNRSNSVSSLDLEGESVSELGAGPSGSNGVEALQLLEHEQATTQDNLDDKLRKFEIRDMMGLTDDRDISETVSETWSTDVLGSDFDPNIDEDRLQEIAGAAAENMLGSLLCLPGSGSVLLDPCTGSTISETTSEAWSVEVLPSDSEAPDLKQEERLQELESCSGLGSTSDDTDVREVSSRPSTPGLSVVSGISATSEDIPNKIEDLRSECSSDFGGKDSVTSPDMDEITHGAHQLTSPPSQSESLLAMFDPLSSHEGASAVVRPKVHYARPSHPPPDPPILEGAVGGNEARLPNFGSHVLTPAEMEAFKQRHSYPERLVRSRSSDIVSSVRRPMSDPSWNRRPGNEERELPPAAAIGATSLVAAPHSSSSSPSKDSSRGETEERKDSDDEKSDRNRPWWRKRFVSAMPKAPIPFRKKEKQEKDKDDLGPDRFSTLTDDPSPRLSAQAQVAEDILDKYRNAIKRTSPSDGAMANYESTGDNHDRDLSSKLLYHSDKEVMGDGESAHDSPRDEALQNISADDLPDSASQAAHPQDSAFSYRDAKKKLRLALCSADSVAFPVLTHSTRNGLPDHTDPEDNEIVCFLKVQIAEAINLQDKNLMAQLQETMRCVCRFDNRTCRKLLASIAEDYRKRAPYIAYLTRCRQGLQTTQAHLERLLQRVLRDKEVANRYFTTVCVRLLLESKEKKIREFIQDFQKLTAADDKTAQVEDFLQFLYGAMAQDVIWQNASEEQLQDAQLAIERSVMNRIFKLAFYPNQDGDILRDQVLHEHIQRLSKVVTANHRALQIPEVYLREAPWPSAQSEIRTISAYKTPRDKVQCILRMCSTIMNLLSLANEDSVPGADDFVPVLVFVLIKANPPCLLSTVQYISSFYASCLSGEESYWWMQFTAAVEFIKTIDDRK
B5: sp¦O95466¦FMNL1_HUMAN (protein, UniProt O95466 2-1100, looked up)
Formin-like protein 1: GNAAGSAEQPAGPAAPPPKQPAPPKQPMPAAGELEERFNRALNCMNLPPDKVQLLSQYDNEKKWELICDQERFQVKNPPAAYIQKLKSYVDTGGVSRKVAADWMSNLGFKRRVQESTQVLRELETSLRTNHIGWVQEFLNEENRGLDVLLEYLAFAQCSVTYDMESTDNGASNSEKNKPLEQSVEDLSKGPPSSVPKSRHLTIKLTPAHSRKALRNSRIVSQKDDVHVCIMCLRAIMNYQSGFSLVMNHPACVNEIALSLNNKNPRTKALVLELLAAVCLVRGGHDIILAAFDNFKEVCGEQHRFEKLMEYFRNEDSNIDFMVACMQFINIVVHSVENMNFRVFLQYEFTHLGLDLYLERLRLTESDKLQVQIQAYLDNIFDVGALLEDTETKNAVLEHMEELQEQVALLTERLRDAENESMAKIAELEKQLSQARKELETLRERFSESTAMGPSRRPPEPEKAPPAAPTRPSALELKVEELEEKGLIRILRGPGDAVSIEILPVAVATPSGGDAPTPGVPTGSPSPDLAPAAEPAPGAAPPPPPPLPGLPSPQEAPPSAPPQAPPLPGSPEPPPAPPLPGDLPPPPPPPPPPPGTDGPVPPPPPPPPPPPGGPPDALGRRDSELGPGVKAKKPIQTKFRMPLLNWVALKPSQITGTVFTELNDEKVLQELDMSDFEEQFKTKSQGPSLDLSALKSKAAQKAPSKATLIEANRAKNLAITLRKGNLGAERICQAIEAYDLQALGLDFLELLMRFLPTEYERSLITRFEREQRPMEELSEEDRFMLCFSRIPRLPERMTTLTFLGNFPDTAQLLMPQLNAIIAASMSIKSSDKLRQILEIVLAFGNYMNSSKRGAAYGFRLQSLDALLEMKSTDRKQTLLHYLVKVIAEKYPQLTGFHSDLHFLDKAGSVSLDSVLADVRSLQRGLELTQREFVRQDDCMVLKEFLRANSPTMDKLLADSKTAQEAFESVVEYFGENPKTTSPGLFFSLFSRFIKAYKKAEQEVEQWKKEAAAQEAGADTPGKGEPPAPKSPPKARRPQMDLISELKRRQQKEPLIYESDRDGAIEDIITVIKTVPFTARTGKRTSRLLCEASLGEEMPL
B6: sp¦P23634¦AT2B4_HUMAN (protein, UniProt P23634 1-1241, looked up)
Plasma membrane …: MTNPSDRVLPANSMAESREGDFGCTVMELRKLMELRSRDALTQINVHYGGVQNLCSRLKTSPVEGLSGNPADLEKRRQVFGHNVIPPKKPKTFLELVWEALQDVTLIILEIAAIISLVLSFYRPAGEENELCGQVATTPEDENEAQAGWIEGAAILFSVIIVVLVTAFNDWSKEKQFRGLQCRIEQEQKFSIIRNGQLIQLPVAEIVVGDIAQVKYGDLLPADGILIQGNDLKIDESSLTGESDHVKKSLDKDPMLLSGTHVMEGSGRMVVTAVGVNSQTGIILTLLGVNEDDEGEKKKKGKKQGVPENRNKAKTQDGVALEIQPLNSQEGIDNEEKDKKAVKVPKKEKSVLQGKLTRLAVQIGKAGLLMSALTVFILILYFVIDNFVINRRPWLPECTPIYIQYFVKFFIIGITVLVVAVPEGLPLAVTISLAYSVKKMMKDNNLVRHLDACETMGNATAICSDKTGTLTMNRMTVVQAYIGGIHYRQIPSPDVFLPKVLDLIVNGISINSAYTSKILPPEKEGGLPRQVGNKTECALLGFVTDLKQDYQAVRNEVPEEKLYKVYTFNSVRKSMSTVIRNPNGGFRMYSKGASEIILRKCNRILDRKGEAVPFKNKDRDDMVRTVIEPMACDGLRTICIAYRDFDDTEPSWDNENEILTELTCIAVVGIEDPVRPEVPDAIAKCKQAGITVRMVTGDNINTARAIATKCGILTPGDDFLCLEGKEFNRLIRNEKGEVEQEKLDKIWPKLRVLARSSPTDKHTLVKGIIDSTVGEHRQVVAVTGDGTNDGPALKKADVGFAMGIAGTDVAKEASDIILTDDNFTSIVKAVMWGRNVYDSISKFLQFQLTVNVVAVIVAFTGACITQDSPLKAVQMLWVNLIMDTFASLALATEPPTESLLKRRPYGRNKPLISRTMMKNILGHAFYQLIVIFILVFAGEKFFDIDSGRKAPLHSPPSQHYTIVFNTFVLMQLFNEINSRKIHGEKNVFSGIYRNIIFCSVVLGTFICQIFIVEFGGKPFSCTSLSLSQWLWCLFIGIGELLWGQFISAIPTRSLKFLKEAGHGTTKEEITKDAEGLDEIDHAEMELRRGQILWFRGLNRIQTQIDVINTFQTGASFKGVLRRQNMGQHLDVKLVPSSSYIKVVKAFHSSLHESIQKPYNQKSIHSFMTHPEFAIEEELPRTPLLDEEEEENPDKASKFGTRVLLLDGEVTPYANTNNNAVDCNQVQLPQSDSSLQSLETSV

The first assay has as its system human HL60 cells. Description: SWATH-MS proteomics, differential protein representation, akirin2 KO vs WT HL60 cells. As to conditions: SWATH-MS, akirin2 KO vs WT HL60 cells, under-represented in KO. The class given is cell-based. In short, it runs like this: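 WT and akirin2 KO HL60 lysates (150 µg, n=3 biological replicates) were FASP trypsin-digested and desalted. A spectral library was built by IDA from 3 µg digests, then 5 µg per sample went to variable-window SWATH DIA over a 120-min 5–30% acetonitrile gradient. Identifications were accepted at 1% global FDR, with total-area-sum normalization.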
With B1, the “Fold Change” value is listed as 0.7315 and the “Log (Fold Change)” value is -0.1358.
As to B2, the “Fold Change” value is 0.7233 and the “Log (Fold Change)” value is recorded as -0.1407.
With B3, the “Fold Change” value worked out at 0.7296 and the “Log (Fold Change)” value is -0.1369.
Taken in the same sequence, the figures for B4 were 0.7165 and -0.1448.

The same assay, now with this note: akirin2 KO vs WT HL60 cells; sheet "Under-represented in KO".
In the case of B5, the “Fold Change” value worked out at 0.3323 and the “Log (Fold Change)” value is -0.4785.
For the molecule B6, the “Fold Change” value is reported as 0.3316 and the “Log (Fold Change)” value was -0.4794.
